What was measured:
[1] = target: N-acetylneuraminate lyase from Aliivibrio salmonicida LFI1238, construct with C-terminal His6-tag (Aliivibrio salmonicida LFI1238); test: crystal structure; crystals from 25% PEG 1.5 K and 20% glycerol; space group I222, one molecule in the asymmetric unit; tetramer generated by crystallographic symmetry; 1.65 A
[2] = target: N-acetylneuraminate lyase from Aliivibrio salmonicida LFI1238, construct with TEV-cleavable N-terminal His6-tag (Aliivibrio salmonicida LFI1238); test: native gel or EMSA; native PAGE of purified AsNAL (2.75 ug) beside NativeMark unstained protein standard
[3] = target: N-acetylneuraminate lyase from Aliivibrio salmonicida LFI1238, construct with TEV-cleavable N-terminal His6-tag (Aliivibrio salmonicida LFI1238); test: SEC; Superdex 200 prep grade HiLoad 16/60 in 50 mM Tris-HCl pH 7.5, 500 mM NaCl, 5 mM beta-ME, 10% glycerol; room temperature

Substance | stoichiometry N [1] | stoichiometry N [2] | stoichiometry N [3]
N-acetylneuraminate lyase from Aliivibrio salmonicida LFI1238, construct with C-terminal His6-tag (enzyme) | 4 | – | –
N-acetylneuraminate lyase from Aliivibrio salmonicida LFI1238, construct with TEV-cleavable N-terminal His6-tag (enzyme) | – | 4 | 4
